According to US5691196, “Recombinant nucleic acid containing a response element” (American Cyanamid Company):

Tests used:
RXRalpha [1] = molecular target: T1, RXRalpha (Homo sapiens, UniProt P19793 P19793:1-462); test: cell_activity; RA vs no RA; details: tags: pMT2-RXRalpha, CV-1 cells; 5' GATC overhang
RXRalpha [2] = molecular target: T1, RXRalpha; test: cell_activity; yeast lacZ reporter, two copies, 1e-6 M 9-cis-RA; 4-fold with all-trans-RA; details: protein: extract; tags: ubiquitin-fusion expression in yeast (YEpRXRalpha); label: 32P
RARalpha = molecular target: T2, RARalpha (UniProt P10276 P10276:1-462); test: cell_activity; two copies of M3; RA; 500 ng RARalpha vector reverses ARP-1 repression and exceeds no-ARP-1 level; details: tags: pMT2-RARalpha, CV-1 cells; 5' GATC overhang
T2 sequence: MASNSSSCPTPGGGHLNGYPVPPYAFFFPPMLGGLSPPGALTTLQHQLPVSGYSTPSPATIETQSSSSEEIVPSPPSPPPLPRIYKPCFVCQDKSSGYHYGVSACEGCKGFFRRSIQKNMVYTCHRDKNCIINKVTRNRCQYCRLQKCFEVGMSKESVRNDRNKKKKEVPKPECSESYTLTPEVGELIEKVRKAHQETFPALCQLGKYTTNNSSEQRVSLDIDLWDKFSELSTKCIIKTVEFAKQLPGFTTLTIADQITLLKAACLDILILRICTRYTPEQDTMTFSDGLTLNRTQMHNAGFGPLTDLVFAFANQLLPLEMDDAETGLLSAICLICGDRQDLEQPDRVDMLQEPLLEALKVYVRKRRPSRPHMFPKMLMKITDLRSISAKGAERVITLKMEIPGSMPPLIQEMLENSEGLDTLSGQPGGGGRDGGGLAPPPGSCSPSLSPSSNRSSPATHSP
Procedure: A reporter construct similar to [A5']-41ALCAT but containing two copies of a mutated version of site A5' in which the sequence CCT in the spacer between the two repeats in the site A5' has been changed to TTT (M3) is tested for its responsiveness to different amounts (indicated) of the RXRα or RARα expression vectors in the presence of RA and the indicated amounts of the ARP-1 expression vector by transient transfection assays into CV-1 cells as described in FIG. 8.

RXRalpha [3] = molecular target: T1, RXRalpha; test: cell_activity; RA vs no RA; details: tags: pMT2-RXRalpha, CV-1 cells; 5' GATC overhang; remark: listed apart in the source
Procedure: (§1) Maintenance of CV-1 cells, transfection of plasmid DNA into these cells, normalization for plasmid DNA uptake by the cells and CAT and β-galactosidase (β-gal) assays are performed as previously described in the literature. The transfection mixtures contained 5 μg of each reporter plasmid, 5 μg of the β-gal expression vector pRSV-β-gal, the amounts of the pMT2-RXRα, pMT2-RARα, pMT2-RARβ, pMT2-ARP-1 and pMT2-Ear3-COUP-TF expression vectors and the appropriate amounts of the previously described control vector pMT2-UT to bring the final amount of the plasmid DNA in the transfection mixtures to a total of 17 μg. The transfection mixtures containing the expression vectors pMT2-HNF4 or pSG5-AR, 1 μg of the β-gal expression vector pCMV-β-gal instead of the vector pRSV-β-gal is used and the final amount of plasmid DNA in the transfection mixture is adjusted to a total of 13 μg as described above.
(§2) The CAT activity in extracts from these cells is normalized for DNA uptake by the cells by conventional methods, and expressed relative to the normalized CAT activity of the construct -41ALCAT in the absence of cotransfected receptor expression vectors or any ligands (Relative CAT Activity). The data represent the average of at least two independent experiments.

RXRalpha [4] = molecular target: T1, RXRalpha; test: cell_activity; CAT reporter, RA vs no RA; details: tags: pMT2-RXRalpha, CV-1 cells; 5' GATC overhang
Procedure: as §1, §2

T1 sequence (P19793 whole entry, the tested form may be a part, one chain of several): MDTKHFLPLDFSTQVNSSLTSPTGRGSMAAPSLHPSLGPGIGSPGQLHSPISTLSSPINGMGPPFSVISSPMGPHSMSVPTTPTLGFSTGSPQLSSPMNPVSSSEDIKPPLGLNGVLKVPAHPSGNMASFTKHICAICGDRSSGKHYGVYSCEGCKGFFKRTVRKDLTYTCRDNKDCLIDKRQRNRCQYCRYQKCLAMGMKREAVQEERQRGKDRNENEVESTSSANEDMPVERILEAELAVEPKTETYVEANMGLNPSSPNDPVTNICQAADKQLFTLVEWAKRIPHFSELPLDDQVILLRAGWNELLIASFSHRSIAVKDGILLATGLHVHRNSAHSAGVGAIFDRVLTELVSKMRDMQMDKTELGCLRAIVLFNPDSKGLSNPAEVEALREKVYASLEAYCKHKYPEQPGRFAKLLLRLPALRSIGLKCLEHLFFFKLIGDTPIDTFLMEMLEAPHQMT

B1: M9 (dsDNA)
DNA 1: ACTGAACTGTGACCCCTG
DNA 2: CAGGGGTCACAGTTCAGT
Q: How did the activity (RXRalpha [1]) turn out when B1 was run?
A: Its activity is less than 3 fold.

B2: apoAI site A (oligo A) (dsDNA)
DNA 1: ACTGAACCCTTGACCCCTGCCCT
DNA 2: AGGGCAGGGGTCAAGGGTTCAGT
Q: With B2 as the binder, how does the activity (RXRalpha [2]) read?
A: The activity was 14 fold.

B3: M10 (dsDNA)
DNA 1: ACTGACCTGTGACCCCTG
DNA 2: CAGGGGTCACAGGTCAGT
Q: Which activity (RXRalpha [1]) does the source give for B3 here?
A: Its activity is less than 3 fold.

B4: M3 (dsDNA)
DNA 1: ACTGAACTTTTGACCCCTG
DNA 2: CAGGGGTCAAAAGTTCAGT
Q: B4 was tested. Which activity (RARalpha) did it give?
A: The activity was greater than 2 fold.

B5: M2 (dsDNA)
DNA 1: ACTGAACTGATGACCCCTG
DNA 2: CAGGGGTCATCAGTTCAGT
Q: How did the activity (RXRalpha [3]) turn out when B5 was run?
A: Its activity is less than 3 fold.

B6: M4 (dsDNA)
DNA 1: ACTGACCCCTTGACCCCTG
DNA 2: CAGGGGTCAAGGGGTCAGT
Q: For B6, which activity (RXRalpha [4]) is on record?
A: Its activity is 7 fold.

B7: site A5' (dsDNA)
DNA 1: ACTGAACCCTTGACCCCTG
DNA 2: CAGGGGTCAAGGGTTCAGT
Q: B7 was tested. Which activity (RXRalpha [4]) did it give?
A: Its activity is 4.8 fold.
